Reference: US20230357838
Read-outs that look alike come from different tables or passages of the source.

Assays:
[1] = test system: d22_PeDa01 (Pseudomonas entomophila)
[2] = test system: EcDa01 (Escherichia coli)
[3] = 5caC at all four C of the listed strand sites
[4] = 5fC at all four C of the listed strand sites

AAATTTAATTATAAAACGATCGACGACGAAATAATAAAAA (double strand) [40 bp control C oligo]
activity (fraction deaminated) [1]: 0.14 | activity (fraction deaminated) [2]: 0.6

AAATTTAATTATAAAACGATCGACGACGAAATAATAAAAA (double strand) [40 bp 5caC oligo]
activity (fraction deaminated) [1, 3]: 0 | activity (fraction deaminated) [2, 3]: 0

AAATTTAATTATAAAACGATCGACGACGAAATAATAAAAA (double strand) [40 bp 5fC oligo]
activity (fraction deaminated) [1, 4]: 0 | activity (fraction deaminated) [2, 4]: 0.01
